Experimental data as given in article PMC4556315, “Structure of the JmjC domain-containing protein NO66 complexed with ribosomal protein Rpl8” (Acta Crystallographica Section D: Biological Crystallography, 2015).
One block for each binder: values may come before it.

How the values were obtained:
[1] = target: T1, C-terminal fragment of wild-type human NO66 (NO66^176–C) (human, UniProt Q9H6W3 176-641); experiment: crystal structure; NO66^176–C with Ni2+, NOG and Rpl8^204–224 peptide (protein:NOG:Ni2+:peptide 1:4:10:15); sitting drop, 295 K, 0.1 M imidazole pH 6.5, 0.5 M sodium acetate; 2.2 Å; details: both partners purified
T1 construct: Cloned in pET-28a(+); Tetramer in the crystal; also called Nucleolar protein 66; wild-type NO66; source: E. coli Rosetta 2 (DE3), purified (Ni-NTA, tag removed by TEV protease, Superdex 200); not shown: His-SUMO, N-terminal, cleaved

[2] = target: T1, C-terminal fragment of wild-type human …; experiment: pull-down; GST-Rpl8 fragments immobilised on GST beads from E. coli lysate and washed, incubated with purified NO66^176–C at 277 K for 1 h; buffer B (50 mM HEPES pH 7.5, 300 mM NaCl, 0.1% Triton X-100); SDS-PAGE; details: both partners purified
[3] = target: the molecule itself; experiment: SEC; Superdex 200 10/300, 20 mM Tris-HCl pH 7.5, 200 mM NaCl; molecular weight estimated from the elution volume

binding result [1]: binds
B1: Rpl8^204–224 peptide (human ribosomal protein L8) (peptide, UniProt P62917 204-224, looked up)
peptide: MNPVEHPFGGGNHQHIGKPST
notes: Only residues 212–222 are visible in the structure; also called Rpl8 peptide; source: synthetic peptide

binding result [2]: binds
B2: GST-Rpl8 fragment 193–224 (domain or fragment)
chain: not shown
notes: Cloned in pGEX-6P-1

B3: NO66^176–C mutant M3 (F450A/R452A/P455A) (enzyme, human, UniProt Q9H6W3 176-641, looked up)
chain: GGEPAWDSPLRRVLAELNRIPSSRRRAARLFEWLIAPMPPDHFYRRLWEREAVLVRRQDHTYYQGLFSTADLDSMLRNEEVQFGQHLDAARYINGRRETLNPPGRALPAAAWSLYQAGCSLRLLCPQAFSTTVWQFLAVLQEQFGSMAGSNVYLTPPNSQGFAPHYDDIEAFVLQLEGRKLWRVYRPRVPTEELALTSSPNFSQDDLGEPVLQTVLEPGDLLYFPRGFIHQAECQDGVHSLHLTLSTYQRNTWGDFLEAILPLAVQAAMEENVEARAGLARDFMDYMGAQHSDSKDPRRTAFMEKVRVLVARLGHFAPVDAVADQRAKDFIHDSLPPVLTDRERALSVYGLPIRWEAGEPVNVGAQLTTETEVHMLQDGIARLVGEGGHLFLYYTVENSRVYHLEEPKCLEIYPQQADAMELLLGSYPEFVRVGDLPCDSVEDQLSLATTLYDKGLLLTKMPLALN
notes: source: E. coli Rosetta 2 (DE3), purified (Ni-NTA, tag removed by TEV protease, Superdex 200); not shown: His-SUMO, N-terminal, cleaved
stoichiometry N [3]: 2
